Results reported in patent US20250152742A1, “COMPOSITIONS AND METHODS FOR NEUROLOGICAL DISEASES” (Trames Bio, Inc., priority 2022, published 2025).

System: engineered chimeric receptor SEQ ID NO: 33 and its mutants (human α7-nAChR ligand binding domain / human GlyRα1 ion pore domain) in Lenti-X 293T cells
Assay: YFP fluorescence quenching anion reporter plate reader assay (percent quench, EC50)
Format: cell-based
Settings: for YFP fluorescence quenching using CNL001 (percent quench): receptor named in row; for YFP fluorescence quenching using Varenicline, 3 nM var: ligand Varenicline 3 nM; for YFP fluorescence quenching using Varenicline, 30 nM var: ligand Varenicline 30 nM; for YFP fluorescence quenching using Varenicline, 300 nM var: ligand Varenicline 300 nM; for YFP fluorescence quenching using Varenicline, 500 nM var: ligand Varenicline 500 nM; for YFP fluorescence quenching using Varenicline, 1 uM var: ligand Varenicline 1 uM
Text: To screen these mutant LGICs for those having novel response profiles to ligands, an anion reporter assay was developed to assess the function of the LGICs in a high throughput format. In this assay, cells expressing a YFP reporter whose fluorescence is quenched in the presence of anion are transfected with DNA encoding the channel of interest. Upon exposure to ligand, channels that are activated will flux anion, resulting in a dose-dependent quench of the YFP that can be detected on a plate reader. The greater the quench signal (i.e., the more positive the value), the higher the ligand activity on the receptor is.
Lenti-X 293T cells (LX293T, Clontech) were maintained in DMEM containing 10% FBS and 1% penicillin/streptomycin (Invitrogen). […] Two days before assay, cells were split at a density of 20,000 cells/well in a 96-well tissue culture plate coated with poly-d lysine (Thermo Scientific). The next day, the cells were transiently transfected with 0.1 μg of DNA per well using standard Fugene protocol (Promega). On the day of assay, cells were washed 2 times in 1X extracellular solution (1X ECS: 140 mM NaCl, 5 mM KCl, 1 mM MgCl2, 2 mM CaCl2, 10 mM HEPES, 10 mM glucose, pH 7.2, mOsms 300). After the last wash, 100 μL of 1X ECS was added to the wells and the plate was incubated at 37° C. for 30 min. While incubating the plate, the drugs were diluted to a 2X concentration in 1X ECS-Nal (same components as 1X ECS except the 140 mM NaCl was replaced by 140 mM Nal). The plates were then read on a Flexstation3 (Molecular Devices). Each well, 8 wells at a time, of the plate is read for 2 min using a Flexstation3 (Molecular Devices) as follows: 1) a baseline YFP fluorescence is read for 17 sec, 2) 100 μL of ligand is added, and 3) the changes in YFP fluorescence are then measured every 1.3 sec for 1 minute and 43 seconds. The percent quench is calculated from the average fluorescence of the last 10 seconds of the read divided by the baseline average of the first 15 seconds prior to the ligand addition.
FIGS. 1A-1J provide heat maps of the percent quench of YFP fluorescence following stimulation by various doses of either acetylcholine or the non-native ligand as indicated in the Figures. CODA71 (SEQ ID NO: 33) was used as a control, and CODA75 (SEQ ID NO: 29, a non-responding chimeric engineered receptor) was used as the negative control. Quenching of the fluorescence signal, as indicated by blue shaded cells, indicate the level of engineered receptor activation by the non-native ligand at that concentration.

B1: CODA333: engineered receptor: L131S in SEQ ID NO: 33 (protein)
chain: MRCSPGGVWLALAASLLHVSLQGEFQRKLYKELVKNYNPLERPVANDSQPLTVYFSLSLLQIMDVDEKNQVLTTNIWLQMSWTDHYLQWNVSEYPGVKTVRFPDGQIWKPDILLYNSADERFDATFHTNVSVNSSGHCQYLPPGIFKSSCPMDLKNFPMDVQTCKLKFGSWSYGGWSLDLQMQEADISGYIPNGEWDLVGIPGKRSERFYECCKEPYPDVTFTVTMRRRMGYYLIQMYIPSLLIVILSWISFWINMDAAPARVGLGITTVLTMTTQSSGSRASLPKVSYVKAIDIWMAVCLLFVFSALLEYAAVNFVSRQHKELLRFRRKRRHHKSPMLNLFQEDEAGEGRFNFSAYGMGPACLQAKDGISVKGANNSNTTNPPPAPSKSPEEMRKLFIQRAKKIDKISRIGFPMAFLIFNMFYWIIYKIVRREDVHNQ
modifications: synthetic sequence of chimeric LGIC
**Q.** With B1 as the molecule, how does the “YFP fluorescence quenching using CNL001 (percent quench)” value (1 nM CNL001, first column so headed) read?
**A.** The value was 76.165%.

**Q.** And the “YFP fluorescence quenching using CNL001 (percent quench)” value (1 nM CNL001, second column so headed)?
**A.** Its value is 78.463%.

**Q.** And the “YFP fluorescence quenching using TC-5619/Bradanicline (percent quench)” value (1 nM brd (TC-5619/Bradanicline))?
**A.** The value was −0.85%.

**Q.** And the “YFP fluorescence quenching using TC-5619/Bradanicline (percent quench)” value (3 nM brd (TC-5619/Bradanicline))?
**A.** Its value is −2.05%.

**Q.** And the “YFP fluorescence quenching using CNL001 (percent quench)” value (10 nM CNL001, first column so headed)?
**A.** Its value is 79.349%.

**Q.** And the “YFP fluorescence quenching using CNL001 (percent quench)” value (10 nM CNL001, second column so headed)?
**A.** Its value is 78.238%.

**Q.** And the “YFP fluorescence quenching using TC-5619/Bradanicline (percent quench)” value (10 nM brd (TC-5619/Bradanicline))?
**A.** The value was −2.8%.

**Q.** And the “YFP fluorescence quenching using TC-6683 (percent quench)” value (30 nM TC-6683)?
**A.** Its value is −23.88%.

**Q.** And the “YFP fluorescence quenching using TC-5619/Bradanicline (percent quench)” value (30 nM brd (TC-5619/Bradanicline))?
**A.** The value was −2.07%.

**Q.** And the “YFP fluorescence quenching using CNL001 (percent quench)” value (50 nM CNL001, first column so headed)?
**A.** The value was 80.221%.

**Q.** And the “YFP fluorescence quenching using CNL001 (percent quench)” value (50 nM CNL001, second column so headed)?
**A.** The value was 81.789%.

**Q.** What about the “YFP fluorescence quenching using ABT-126 (percent quench)” value (50 nM abt (ABT-126)) of the same molecule?
**A.** The value was −20.99%.

**Q.** And the “YFP fluorescence quenching using CNL001 (percent quench)” value (100 nM CNL001, first column so headed)?
**A.** Its value is 81.855%.

**Q.** And the “YFP fluorescence quenching using CNL001 (percent quench)” value (100 nM CNL001, second column so headed)?
**A.** The value was 80.766%.

**Q.** And the “YFP fluorescence quenching (percent quench)” value (100 nM CNL002)?
**A.** The value was −15.44%.

**Q.** And the “YFP fluorescence quenching using ABT-126 (percent quench)” value (100 nM abt (ABT-126))?
**A.** The value was −16.21%.

**Q.** What about the “YFP fluorescence quenching using AZD-0328 (percent quench)” value (100 nM azd0328) of the same molecule?
**A.** The value was 38.49%.

**Q.** And the “YFP fluorescence quenching using TC-5619/Bradanicline (percent quench)” value (100 nM brd (TC-5619/Bradanicline))?
**A.** Its value is 30.34%.

**Q.** What about the “YFP fluorescence quenching using TC-6683 (percent quench)” value (300 nM TC-6683) of the same molecule?
**A.** Its value is −21.46%.

**Q.** What about the “YFP fluorescence quenching using ABT-126 (percent quench)” value (300 nM abt (ABT-126)) of the same molecule?
**A.** Its value is −13.34%.

**Q.** What about the “YFP fluorescence quenching using AZD-0328 (percent quench)” value (300 nM azd0328) of the same molecule?
**A.** Its value is 67.13%.

**Q.** What about the “YFP fluorescence quenching using TC-5619/Bradanicline (percent quench)” value (300 nM brd (TC-5619/Bradanicline)) of the same molecule?
**A.** Its value is 50.56%.

**Q.** And the “YFP fluorescence quenching using CNL001 (percent quench)” value (1 uM CNL001, first column so headed)?
**A.** The value was 81.707%.

**Q.** And the “YFP fluorescence quenching using CNL001 (percent quench)” value (1 uM CNL001, second column so headed)?
**A.** The value was 82.665%.

**Q.** And the “YFP fluorescence quenching (percent quench)” value (1 uM CNL002)?
**A.** The value was 15.21%.

**Q.** What about the “YFP fluorescence quenching using ABT-126 (percent quench)” value (1 uM abt (ABT-126)) of the same molecule?
**A.** The value was 4.96%.

**Q.** And the “YFP fluorescence quenching using TC-5619/Bradanicline (percent quench)” value (1 uM brd (TC-5619/Bradanicline))?
**A.** Its value is 72.42%.

**Q.** What about the “YFP fluorescence quenching using TC-6683 (percent quench)” value (3 uM TC-6683) of the same molecule?
**A.** The value was −21.07%.

**Q.** And the “YFP fluorescence quenching (percent quench)” value (10 uM ach (acetylcholine))?
**A.** Its value is −10.11%.

**Q.** What about the “YFP fluorescence quenching using TC-6683 (percent quench)” value (30 uM TC-6683) of the same molecule?
**A.** The value was −16.15%.

**Q.** And the “YFP fluorescence quenching using AZD-0328 (percent quench)” value (30 uM azd0328)?
**A.** The value was 80.61%.

**Q.** What about the “YFP fluorescence quenching using TC-6683 (percent quench)” value (100 uM TC-6683) of the same molecule?
**A.** Its value is −18.96%.

**Q.** What about the “YFP fluorescence quenching (percent quench)” value (100 uM ach (acetylcholine)) of the same molecule?
**A.** Its value is −10.05%.

**Q.** And the “YFP fluorescence quenching (percent quench)” value (1 mM ach (acetylcholine))?
**A.** The value was 32.11%.

**Q.** And the “YFP fluorescence quenching (percent quench)” value (3 mM ach (acetylcholine))?
**A.** Its value is 57.37%.

**Q.** And the “YFP fluorescence quenching using Facinicline, 30 nM fac” value (ligand Facinicline 30 nM)?
**A.** Its value is 6.27.

**Q.** What about the “YFP fluorescence quenching using Facinicline, 300 nM fac” value (ligand Facinicline 300 nM) of the same molecule?
**A.** Its value is 69.8.

**Q.** And the “YFP fluorescence quenching using Facinicline, 10 uM fac” value (ligand Facinicline 10 uM)?
**A.** The value was 80.07.

**Q.** And the “YFP fluorescence quenching using Facinicline, 30 uM fac” value (ligand Facinicline 30 uM)?
**A.** Its value is 81.35.

**Q.** And the “YFP fluorescence quenching using TC-6987, 1 uM tc6987” value (ligand TC-6987 1 uM)?
**A.** The value was −3.87.

**Q.** What about the “YFP fluorescence quenching using TC-6987, 3 uM tc6987” value (ligand TC-6987 3 uM) of the same molecule?
**A.** Its value is −20.2.

**Q.** What about the “YFP fluorescence quenching using TC-6987, 5 uM tc6987” value (ligand TC-6987 5 uM) of the same molecule?
**A.** Its value is −15.25.

**Q.** And the “YFP fluorescence quenching using TC-6987, 10 uM tc6987” value (ligand TC-6987 10 uM)?
**A.** Its value is 4.92.

**Q.** And the “YFP fluorescence quenching using TC-6987, 30 uM tc6987” value (ligand TC-6987 30 uM)?
**A.** Its value is 14.75.

**Q.** What about the “YFP fluorescence quenching using TC-6987, 50 uM tc6987” value (ligand TC-6987 50 uM) of the same molecule?
**A.** The value was 21.33.

**Q.** And the “YFP fluorescence quenching using TC-6987, 100 uM tc6987” value (ligand TC-6987 100 uM)?
**A.** The value was 29.7.

**Q.** What about the “YFP fluorescence quenching using TC-6987, 300 uM tc6987” value (ligand TC-6987 300 uM) of the same molecule?
**A.** Its value is 20.79.

**Q.** And the “YFP fluorescence quenching using TC-6987, 500 uM tc6987” value (ligand TC-6987 500 uM)?
**A.** The value was 44.37.

**Q.** And the “YFP fluorescence quenching using Varenicline, 3 nM var” value (first column)?
**A.** The value was −4.782.

**Q.** What about the “YFP fluorescence quenching using Varenicline, 3 nM var” value (second column) of the same molecule?
**A.** The value was 1.048.

**Q.** What about the “YFP fluorescence quenching using Varenicline, 30 nM var” value (first column) of the same molecule?
**A.** The value was 2.084.

**Q.** What about the “YFP fluorescence quenching using Varenicline, 30 nM var” value (second column) of the same molecule?
**A.** Its value is 5.022.

**Q.** And the “YFP fluorescence quenching using Varenicline, 300 nM var” value (first column)?
**A.** Its value is 12.162.

**Q.** What about the “YFP fluorescence quenching using Varenicline, 300 nM var” value (second column) of the same molecule?
**A.** Its value is 12.979.

**Q.** And the “YFP fluorescence quenching using Varenicline, 500 nM var” value (first column)?
**A.** Its value is 29.238.

**Q.** And the “YFP fluorescence quenching using Varenicline, 500 nM var” value (second column)?
**A.** Its value is 25.614.

**Q.** And the “YFP fluorescence quenching using Varenicline, 1 uM var” value (first column)?
**A.** The value was 43.863.

**Q.** What about the “YFP fluorescence quenching using Varenicline, 1 uM var” value (second column) of the same molecule?
**A.** Its value is 39.346.
